{"source": "paper PMC10095280", "key": {"β-arrestin2 [1]": {"biological_target": "β-arrestin2 (UniProt P32121)", "assay": "bystander BRET, β-arrestin2-Rluc2 to membrane GFP-CAAX", "details": "for percent of reference: reference: wild type"}, "β-arrestin2 [2]": {"biological_target": "β-arrestin2 (UniProt P32121)", "assay": "direct BRET, D1R-Rluc8 and β-arrestin2-mVenus", "details": "reference: wild type"}, "β-arrestin2 [3]": {"biological_target": "β-arrestin2 (UniProt P32121)", "assay": "β-arrestin recruitment BRET, type not stated", "details": "reference: wild type; sites S417,S421,T428,S431,T439,S441,S445,T446"}, "[4]": {"details": "sites S256,S258,S259,T360,S362,S372,S373,S380,T428,S431,T439,S441,S445,T446"}}, "data": [{"substance": "D1 dopamine receptor (D1R) (from UniProt P18901) GRK-null (14 GRK sites mutated)", "values": [{"measurement": "percent of reference", "setting": "β-arrestin2 [1]; [4]", "value": "lost; reference 100"}, {"measurement": "percent of reference", "setting": "β-arrestin2 [2]; [4]", "value": "lost; reference 100"}]}, {"substance": "D1 dopamine receptor (D1R) (from UniProt P18901) PKC-null", "values": [{"measurement": "other: Emax, % of WT D1R", "setting": "β-arrestin2 [1]; reference: PKC-null + A259S (S259 restored), sites S259", "value": "same; reference 59 ± 9.4"}]}, {"substance": "D1 dopamine receptor (D1R) (from UniProt P18901) PKC-null (S259A/S397A/S398A/S417A/S421A)", "values": [{"measurement": "percent of reference", "setting": "β-arrestin2 [1]; sites S259,S397,S398,S417,S421", "value": "weaker; reference 100"}]}, {"substance": "D1 dopamine receptor (D1R) (from UniProt P18901) S2/S3/S4 mutant (S256A/S258A/S259A)", "values": [{"measurement": "percent of reference", "setting": "β-arrestin2 [1]; sites S256,S258,S259", "value": "weaker; reference 100"}]}, {"substance": "D1 dopamine receptor (D1R) (from UniProt P18901) S6A (S362A)", "values": [{"measurement": "percent of reference", "setting": "β-arrestin2 [2]; sites S362", "value": "weaker; reference 100"}]}, {"substance": "D1 dopamine receptor (D1R) (from UniProt P18901) S13–S20 mutant (8 distal C-terminal S/T mutated)", "values": [{"measurement": "percent of reference", "setting": "β-arrestin2 [3]", "value": "weaker; reference 100"}]}, {"substance": "D1 dopamine receptor (D1R) (from UniProt P18901) T5V (T360V)", "values": [{"measurement": "percent of reference", "setting": "β-arrestin2 [2]; sites T360", "value": "weaker; reference 100"}]}, {"substance": "D1 dopamine receptor (D1R) (from UniProt P18901) T5V/S6A (T360V/S362A)", "values": [{"measurement": "percent of reference", "setting": "β-arrestin2 [1]; sites T360,S362", "value": "weaker; reference 100"}, {"measurement": "percent of reference", "setting": "β-arrestin2 [2]; sites T360,S362", "value": "weaker; reference 100"}]}, {"substance": "D1 dopamine receptor (D1R) (from UniProt P18901) Tail Total (all 20 C-terminal S/T mutated)", "values": [{"measurement": "percent of reference", "setting": "β-arrestin2 [2]; sites S342,T343,T353,T354,T360,S362,S372,S373,S380,S382,S397,S398,S417,S421,T428,S431,T439,S441,S445,T446", "value": "weaker; reference 100"}]}, {"substance": "D1 dopamine receptor (D1R) T1 truncation, stop after 370 (from UniProt P18901) D1R T1 + T5V/S6A", "values": [{"measurement": "other: Emax, % of full-length WT D1R", "setting": "β-arrestin2 [1]; reference: D1R T1 truncation, sites T360,S362", "value": "weaker; reference 112 ± 5.1"}]}]}
